Assay results taken from FireProtDB (doi:10.1007/s00792-015-0748-z).

B1: L-asparaginase, Q8TZE8 (parent)
chain: MKILLIGMGGTIASVKGENGYEASLSVKEVLDIAGIKDCEDCDFLDLKNVDSTLIQPEDWVDLAETLYKNVKKYDGIIVTHGTDTLAYTSSMISFMLRNPPIPIVFTGSMIPATEENSDAPLNLQTAIKFATSGIRGVYVAFNGKVMLGVRTSKVRTMSRDAFESINYPIIAELRGEDLVVNFIPKFNNGEVTLDLRHDPKVLVIKLIPGLSGDIFRAAVELGYRGIVIEGYGAGGIPYRGSDLLQTIEELSKEIPIVMTTQAMYDGVDLTRYKVGRLALRAGVIPAGDMTKEATVTKLMWILGHTNNVEEIKVLMRKNLVGELRD

Variants of: B1
Conditions: Pyrococcus furiosus (strain ATCC 43587 / DSM 3638 / JCM 8422 / Vc1); pH 8; 60 °C; GdnHCl; Fluorescence; Tris; NaCl; transition: 2; reversible: yes; structure 4Q0M; whole UniProt chain shown

MKILLIGMGGTIASVKGENGYEASLSVKEVLDIAGIKDCEDCDFLDLKNVDSTLIQPEDWVDLAETLYKNVKKYDGIIVTHGTDTLAYTSSMISFMLRNPPIPIVFTGSMIPATEENSDAPLNLQTAIKFATSGIRGVYVAFNGKVMLGVRTSKVRTMSRDAFESINYPIIAELRGEDLVVNFIPKFNNGEVTLDLRHDPKVLVIKLIPGLSGDIFRAAVELGYRGIVIEGYGAGGIPYRGSDLLQTIEELSKEIPIVMTTQAMYDGVDLTRYKVGRLALRAGVIPAGDMTKEATVTKLMFILGHTNNVEEIKVLMRKNLVGELRD [W301F]
ddG of mutation (higher = less stable): -3.98 kcal/mol
denaturant m value: 6.21 kcal/mol/M
denaturant midpoint (higher = more stable): 3.18 M
unfolding free energy: 19.7 kcal/mol

MKILLIGMGGTIASVKGENGYEASLSVKEVLDIAGIKDCEDCDFLDLKNVDSTLIQPEDFVDLAETLYKNVKKYDGIIVTHGTDTLAYTSSMISFMLRNPPIPIVFTGSMIPATEENSDAPLNLQTAIKFATSGIRGVYVAFNGKVMLGVRTSKVRTMSRDAFESINYPIIAELRGEDLVVNFIPKFNNGEVTLDLRHDPKVLVIKLIPGLSGDIFRAAVELGYRGIVIEGYGAGGIPYRGSDLLQTIEELSKEIPIVMTTQAMYDGVDLTRYKVGRLALRAGVIPAGDMTKEATVTKLMWILGHTNNVEEIKVLMRKNLVGELRD [W60F]
denaturant m value: 4.23 kcal/mol/M
denaturant midpoint (higher = more stable): 2.82 M
unfolding free energy: 11.9 kcal/mol
